# Data taken from PMC8141534 (The Journal of Biological Chemistry, 2021).
# B1: Psu: bacteriophage P4 capsid protein, natural Rho antagonist, ∼42-kDa dimer (protein)
# chain: MESTALQQAFDTCQNNKAAWLQRKNELAAAEQEYLRLLSGEGRNVSRLDELRNIIEVRKWQVNQAAGRYIRSHEAVQHISIRDRLNDFMQQHGTALAAALAPELMGYSELTAIARNCAIQRATDALREALLSWLAKGEKINYSAQDSDILTTIGFRPDVASVDDSREKFTPAQNMIFSRKSAQLASRQSV
# What was measured:
# P167L Rho [1] = target: T1, P167L Rho (Escherichia coli, UniProt P0AG30, P167L); settings: ref [11]; cited from earlier work
# WT Rho = WT Rho (Escherichia coli, UniProt P0AG30); settings: earlier work; ref [11]; cited from earlier work
# Sequence of WT Rho (P0AG30 whole entry): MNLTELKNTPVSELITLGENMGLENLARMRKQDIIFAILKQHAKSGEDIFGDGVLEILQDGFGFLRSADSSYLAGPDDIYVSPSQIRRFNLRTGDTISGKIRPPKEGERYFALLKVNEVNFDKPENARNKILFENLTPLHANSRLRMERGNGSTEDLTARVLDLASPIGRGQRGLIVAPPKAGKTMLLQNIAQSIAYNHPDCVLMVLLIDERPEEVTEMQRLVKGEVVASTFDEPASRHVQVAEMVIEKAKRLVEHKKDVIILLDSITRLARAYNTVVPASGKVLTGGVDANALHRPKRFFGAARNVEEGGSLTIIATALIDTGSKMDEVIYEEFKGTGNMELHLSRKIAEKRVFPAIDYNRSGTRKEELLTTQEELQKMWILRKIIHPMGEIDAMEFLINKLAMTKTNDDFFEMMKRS
# [2] = test system: Rho proteins from pathogenic bacteria; format: biochemical; settings: 35 μM peptide 33, 50 nM Rho, E. coli RNAP stalled EC, trpt′
# [3] = test system: Rho point mutants, R144E, R146E, and, E148R; settings: cited from earlier work
# pathogenic Rho proteins = settings: ref [13]; cited from earlier work
# MG1655 gene expression = format: cell-based, Escherichia coli; settings: qRT-PCR, relative to empty vector
# [4] = test system: Rho-dependent termination (trpt′ and trac terminators, lacZ reporter); format: cell-based, Escherichia coli; settings: trpt′ and trac, LB-X-gal, induction by 50 μM IPTG
# [5] = test system: Rho-dependent termination (trac and trpt′ lacZ fusions); format: cell-based, Escherichia coli; settings: qRT-PCR, 2−ΔΔCt relative to empty vector; 100 μM IPTG (20 μM for Psu); at least three biological replicates
# [6] = test system: Mycobacterium smegmatis mc^2155; format: cell-based
# Mycobacterium bovis BCG = format: cell-based
# E. coli Rho [7] = test: Rho-mediated RNA release from stalled (roadblocked) elongation complex; format: biochemical, Escherichia coli; settings: Fig. S4B
# E. coli Rho [8] = settings: cited from earlier work
# P167L Rho [9] = target: T1, P167L Rho; format: binding; settings: Rho:ligand in μg: 1:6 (peptide 16), 1:4 (peptide 33), 1:3 (Psu); 1 mM ATP, pH 8.0, 37 °C, 20 min; SD of two or three measurements
# E. coli Rho [10] = settings: compared with peptide 33; ref [9]; cited from earlier work
# Source text: Next, we assayed the peptide-mediated inhibition of the in vitro transcription termination functions of the Rho. We used a linear DNA template where a trpt′ terminator is fused downstream of a strong T7A1 promoter. On this template, efficient transcription termination over a terminator zone is usually observed in the presence of Rho (Fig. 3D; ([16])). The amount of run-off transcripts at the end of this template gives the measure of Rho inhibition by the peptides. We observed that the amount of ...
# [11] = test system: Rho-dependent termination (galEP3 reporter); test: in vivo Rho-dependent termination, galEP3 reporter, MacConkey-galactose plates; format: cell-based, Escherichia coli; settings: MC4100 galEP3, MacConkey-galactose plates, overexpression
molecule,measurement,setting,value
B1,in vitro stable complex with P167L Rho (in words),P167L Rho [1],"stable complex between Psu and Rho could form if a mutant Rho, P167L, was used"
same,in vitro stable complex with WT Rho (in words),WT Rho,failed to obtain a stable in vitro Rho–Psu complex with the WT Rho
same,inhibition of RNA release by pathogenic Rho proteins (in words),[2],could inhibit the termination process by all the different Rho proteins
same,"binding of Rho mutants R144E, R146E, E148R (in words)",[3],did not bind to Psu
same,inhibition of ATP hydrolysis of Salmonella and Vibrio Rho with poly(C) RNA (in words),pathogenic Rho proteins,too fast to be inhibited by Psu
same,upregulation of tested genes (in words),MG1655 gene expression,highest level of upregulations of the tested genes
same,"colour of colonies, lacZ reporter (in words)",[4],deep blue colonies
same,enhancement of expression of Plac-trac-lacZ fusion,[5],28 fold
same,growth phenotype upon streaking (in words),[6],very sick phenotype
same,transformants obtained (in words),[6],fewer colonies than those obtained from the transformation with the empty vector
same,growth phenotype upon streaking (in words),Mycobacterium bovis BCG,very sick phenotype
same,inhibition of Rho-induced RNA release from stalled EC (in words),E. coli Rho [7]; Fig. 3E,significantly inhibited
same,Frac. of RNA released (%),"E. coli Rho [7]; Psu 5.0, Rho 50 nM",12 ± 0.4%
same,rate of RNA-dependent ATP hydrolysis of Rho (in words),E. coli Rho [8],reduced the rate of RNA-dependent ATP hydrolysis
same,Fraction of Rho associated (%),P167L Rho [9],49 ± 5%
same,in vitro Rho inhibition in termination assay (in words),E. coli Rho [10],A similar level of in vitro Rho inhibition
same,"colour of colonies, galEP3 reporter (in words)",[11],appearance of red colonies
